According to patent publication US10801046B2, “Methods and materials for biosynthesizing multifunctional, multivariate molecules via carbon chain modification” (INVISTA NORTH AMERICA S.A.R.L., priority 2016, dated 2020):

What was measured:
[1] = tested on: heptanedioyl-ACP methyl ester; assay: Cell lysate in vitro thioesterase screen (DTNB, absorbance at 410 nm) on heptanedioyl-ACP methyl ester; assay type: biochemical; settings: 0.33 mM acyl-ACP substrate, 30° C., 30 min
[2] = In vivo carboxylate reductase screening, substrate consumption by LC-MS, heptanedioate; assay type: cell-based, Escherichia coli; settings: 541 enzymes screened in vivo
Description: To screen carboxylate reductases in vivo, […] T7- pUC expression vectors was co-transformed into T7 Express lysY/Iq with the phosphopantetheinyl transferase sfp from Bacillus subtilis on a T7-pCDF expression vector. Biological duplicates of the resulting strains were incubated in 0.5 mL of terrific broth containing either 1 g/L heptanedioate or 1 g/L monomethyl heptanedioate and supplemented with 0.4 mM IPTG in 96-well deep well plates. The plates were incubated for 30 h at 30° C. in a shaking incubator. The cells were then pelleted, and culture supernatants from the same strains in media containing either heptanedioate or monomethyl heptanedioate were combined. The combined supernatants were analyzed by LC-MS to determine the concentration of heptanedioate and monomethyl heptanedioate. Carboxylate reductase activity on heptanedioate or monomethyl heptanedioate was reflected by consumption of the respective substrate in the medium.

[3] = tested on: heptanedioyl-ACP methyl ester; assay type: cell-based, Escherichia coli; settings: top 150 hits screened in vivo

B1: SEQ ID NO: 92: Treponema primitia thioesterase (protein)
chain: MDVWKESYPVGFTAVDESEGLTLAAAFDYFQEAARRHAEVLGVGQEPMVQAGQGWVLSRISVLVERRPRQGELITVSTWPRGWEKLFALRDFDIRDESDKPIVRARSCWLIVNIEKRRPLRPQATMEKLPLNEGRDALPGGGVGLAPLENLLKAGDRVAAYSDIDYNGHVNNARYVQWVQDIADPTALVQAKTLRLDINYLSEVKIHEPIELWTEPLPAESDAVYTLGVEGRRNGGAVFRAELRIKD
modifications: Treponema primitia (strain ATCC BAA-887 / DSM 12427 / ZAS-2)
notes: Treponema primitia thioesterase
activity toward heptanedioyl-ACP methyl ester (hydrolysis) [1]: notable for their activity toward heptanedioyl-ACP methyl ester

B2: SEQ ID NO: 94: Paenibacillus sp. IHBB 10380 thioesterase (protein)
chain: MGNIWTEEHLIYSNEIDYKANCRLSNLLSLMQRAADGDVEHMGGTRDQMVAHHLGWMLTTIDLACERMPIFNETLKITTWNKGTKGPLWLRDFRIFDENNQEIAKACTLWALVDIDKRKVLRPSAYPFNINSNHEDSVGPVPDKLNISDEVELYHSYSITVRYSGIDSNGHLNNSRYADLCMDTLTQSELDTLSILGFHITYYHEVKSAEQIQVLRSDHLEGYIYFRGQSLEDERYFEACLHVG
modifications: Paenibacillus sp. IHBB 10380
notes: Paenibacillus sp; IHBB 10380 thioesterase
activity toward heptanedioyl-ACP methyl ester (hydrolysis) [1]: notable for their activity toward heptanedioyl-ACP methyl ester

B3: SEQ ID NO: 204: Geotrichum candidum carboxylate reductase (protein, listed as Geotrichum candidum)
chain: MSATLNGTQFPPEVAARLRTYPIATDPSVNANTPLITDPVTVKPYKIGKPQAVPVPGSKVDGFSEVYRNAHCPDRLVTTVHPKITTVVEAFDACVSEYKNEKALGERVFDGKTKTWSKIYQYETYGTIAKRRLDIGKGISKVVQDVTGFDSRQTPYCLGLYGPNCSNWILTDLAAQTQSIPTVCLYDTLGPDSTRYIMTLTEMPAIVCSVAHIPFVLNIKDELPNLKVIIAMNPINNPDIVDKPGQSKKDVLTAWAKKSGVELFEFTEVEKIGRESGRGLHLPGPDTVLTINFTSGTTGNPKGVVISQANVLAGTIVARSQSTFNHRGSSGFLSFLPLAHIYERLTIHSVLTSGIPIGFFHGDVAELLDDIATYHPTIVAGVPRIWNRIAGAIRASTIEAPGIAGALSRKAYTTKLARLHETGDYHHPIWDRLWSNKIRTKTGFDQAKTFVTGSAPMARENIELIKVALGVEFVQGYGLTETMGGISVCSPGDNTAGSVGPVAITTEVKLRDLPTMNYSSSDKPFPRGEIMIRGPQVFMGYYKNEEATKGSIDEDGWFSSGDVGMIDDLGRLYVIDRVKNFFKLAQGEYVGPERIEALYQSSSGLVAQIFVEGNSLETYLVGIVGVNPEAYVQFLSHNFKMHIKPTDLEAIKKTFSRKDIRDTFLLELNVHAKDAQLKGYEKIKNVTLAIEPFSVENGTLTPTLKVKRPDAARLFKADVDAMYKEGPVEVKSKL
substrate preference, heptanedioic acid to 7-oxoheptanoate [2]: preferred acting upon heptanedioic acid to form 7-oxoheptanoate

B4: SEQ ID NO: 61: Congregibacter litoralis KT71 thioesterase (protein)
chain: MGLLLGLALLLTGQLARAESTAGERPRILVVGDSISAAYGMSLEQGWAALLERRLQTRWPGAQVINASISGDTSAGGARRLPKLLAEHSPDLVVIELGGNDGLRGYPTSKLEANLSFMAEAASTAGAEVLILPMEIPPNYGPRYTRSFRESFERAATDTGATLGPFLLDGIATEEQLMQQDGIHPTVEAQPMITDIVQPVIEALLALREAS
modifications: Congregibacter litoralis KT71
notes: Congregibacter litoralis KT71 thioesterase
activity toward heptanedioyl-ACP methyl ester (hydrolysis) [1]: notable for their activity toward heptanedioyl-ACP methyl ester

B5: SEQ ID NO: 89: Clostridium cellulolyticum thioesterase (protein, listed as Clostridium cellulolyticum)
chain: MEPLSIYKKNYHVDYGDADFYKRLKLSYLFNYFQNIAGLHSENTNVGIRKLQNDYGAAWVMTRMLMDINRMPECNEEISIETWPVEPKKKMIDRNFIVRDMDGSILASAISTWVILDMEKREMVRIDSVIPPQYPEFLKSKAIDRKFDKLKPSGQLQPAYKKLVGFSDIDINGHVNNAKYIDYILDCFTVEKHGEYRVKSIQINYVNEAVAGDIISLYKDTVDMDGSDKAVYITGINEVDGKVNFESHIRVQ
modifications: Clostridium cellulolyticum (strain ATCC 35319 / DSM 5812 / JCM 6584 / H10)
notes: Clostridium cellulolyticum thioesterase
activity toward heptanedioyl-ACP methyl ester (hydrolysis) [1]: notable for their activity toward heptanedioyl-ACP methyl ester

B6: SEQ ID NO: 202: Lichtheimia corymbifera carboxylate reductase (protein)
chain: MVTLTMDKQTIEIPNDVPGESPILRRTPELMDSFVPGINNIYDLFYNGYKLSRDQPCLGERPILDRTTGERAKQFEWQTYEQVAARVDNFGSGLKHVLQQIGESRPKQIPIGIWSVNRPEWHIVDWACAAHSLYVVALYDTLGPDTVEYVVNHAEIQVVVCTKEHVTDLLKLRSKLPQLKAIISFDTLEKEQSQALHAWAEEKDLLLVEFANVEQHGKENPVPHNPAQRSDLACIMYTSGTTGKSKGVMLTQGNFVAAVSGAIYNVKSSPADVGISYLPLGHIYGRVADAFTVAGGASLGFFSGKVDNLLEDMQILKPTLFNTVPRLLNRIYTGIVQSTLQAPGMMKKSTMSLIWNCSLGITDVGPKGALFRKAIATKLENLEQGKGTQHPVYDRLLFDKVRQVLGGRVRFINTGAAPLGKEVMQLLRVTLLADIRESYGATESCASLTMQIEGDPKPGCIGIPAPCNEMKLIDVPEMNYLTTDKPYARGEICVRGYNVSLGYYKDEEKTKEAFDKDGFYHTGDIGMIDERGTFMVIDRKKNIFKLSQGEYIAPEKIENIYARDILVSQIFVYGDSVQSCLVAIVVPDPIELGKLAQEKLPKLTSLSYEELCNNPEVHIAVLERMMENGKRAEMRGFEFVKAIHLDSKPFTVENNLLTPSLKLKRPEARKFFQKEIEQLYQKLSNSSAGSAARL
modifications: Lichtheimia corymbifera JMRC:FSU:9682
notes: Lichtheimia corymbifera carboxylate reductase
substrate preference, heptanedioic acid to 7-oxoheptanoate [2]: preferred acting upon heptanedioic acid to form 7-oxoheptanoate

B7: SEQ ID NO: 93: Oceanimonas sp. thioesterase (protein)
chain: MLRILVLLLCLVSPTVLADTLLILGDSLSAGYRMRSDQAWPHLLAEQWRREGRQVTVINASVSGDTTQGGLQRLPPLLQRHQPSLVLLELGGNDGLRGLPPGLIERNLERLIALAGDAGARVILTDIQLPPNYGRRYLQQFEQVFSRLASQHQLPLLPFFVAPLMGEQGMMMDDGIHPTVKAQPLIARQVGEFLTPYLTP
modifications: Oceanimonas sp. (strain GK1)
notes: Oceanimonas sp. thioesterase
activity toward heptanedioyl-ACP methyl ester (hydrolysis) [1]: notable for their activity toward heptanedioyl-ACP methyl ester

B8: SEQ ID NO: 75: Clostridium thermocellum thioesterase (protein, listed as Clostridium thermocellum)
chain: MQKKRFSKKYEVHYYEINSMQEATLLSLLNYMEDCAISHSTSAGYGVNELLAADAGWVLYRWLIKIDRLPKLGETITVQTWASSFERFYGNREFIVLDGRDNPIVKASSVWIYFNIKKRKPMRIPLEMGDAYGIDETRALEEPFTDFDFDFEPKVIEEFTVKRSDIDTNSHVNNKKYVDWIMETVPQQIYDNYKVTSLQIIYKKESSLGSGIKAGCVIDEQNTDNPRLLHKIWDKNTGLELVSAETIWQKIQS
modifications: Clostridium thermocellum (strain ATCC 27405 / DSM 1237 / NBRC 103400 / NCIMB 10682 / NRRL B-4536 / VPI 7372)
notes: Clostridium thermocellum thioesterase
activity toward heptanedioyl-ACP methyl ester (hydrolysis) [1]: notable for their activity toward heptanedioyl-ACP methyl ester
activity toward heptanedioyl-ACP methyl ester in vivo [3]: showed activity toward heptanedioyl-ACP methyl ester

B9: SEQ ID NO: 60: Escherichia coli thioesterase (protein)
chain: MNTTLFRWPVRVYYEDTDAGGVVYHASYVAFYERARTEMLRHHHFSQQALMAERVAFVVRKMTVEYYAPARLDDMLEIQTEITSMRGTSLVFTQRIVNAENTLLNEAEVLVVCVDPLKMKPRALPKSIVAEFKQ
modifications: Escherichia coli (strain K12)
notes: Escherichia coli thioesterase
activity toward heptanedioyl-ACP methyl ester (hydrolysis) [1]: notable for their activity toward heptanedioyl-ACP methyl ester

B10: SEQ ID NO: 203: Labilithrix luteola carboxylate reductase (protein, listed as Labilithrix luteola)
chain: MDISRFLDLRIAPRAVFDALEERKTRARFMVPTAPGSNEWRPVTWGAFAQEIRELALFLSTVLSSGDRGAVYAPNRVEWASAALAIQAAGGVIVPIYPASTPDQLSYVASHSDAKVIFVDTAPLLTRLFATWNSTPGVEKIVVLDDGIDVARVYESAREKGIPVPSLDAVERKVLSIGKARGIGAARDQEDPQAFERTMAAISLDQAGMMLYTSGTSGNPKGVPLTHRNVAVNGLDWLKCNYPLLEEGDVDILWLPMSHIFGFGEMCLGNTLGWTSYLADPATCLGRLPEVTPNIFMSVPSHWEKLALMAMHEPTPQARLDKFKAATGGKLRFCLSGGAGLKREVKDFFYSCGVLIVEGYGLTETSPTLTLNRPDAFRFDTVGKTLPSVELRLADDGEILARGASVFGGYHKDPEATREAFTEDGWFKTGDVGRFTDDGFLQIIDRKKDILVTAGGKNVPPANIEIRFQDDPLFAHVVVYGDAKKYLVAGVWLNEEAMSSQLASVPKDQQESARRDLVQKRIDHVNASLASYETIKKFSIIGEPLTVEAGLLTPSLKMRRKKVYEHFHGIFEGMFEDTQGKGAASSTASQGSGA
substrate preference, heptanedioic acid to 7-oxoheptanoate [2]: preferred acting upon heptanedioic acid to form 7-oxoheptanoate

B11: SEQ ID NO: 76: Thermovirga lienii thioesterase (protein, listed as Thermovirga lienii)
chain: MYEHNFRISYSQAGALGRLKLTGAMNLCQDIADDHAERVGVSVADLLKQSKTWVLHRFKMTIQTMPQRGDLVTIKTWYRPEKNLYSLRNFEMLDCNGKKLLSVQTSWVVVDMNRGRPLRLDRVMPEAYDKNKDENLEVSFQELLLPEKVDVKKTIQVAVTDLDMNFHVNNVHYLRWALDTIPVEILKEYKPKGVEIAFKRPAFYGDSVISEVGIDKNSCSILCRHHIYGEKDGQSMAVISTEWEKISREER
modifications: Thermovirga lienii (strain ATCC BAA-1197 / DSM 17291 / Cas60314)
notes: Thermovirga lienii thioesterase
activity toward heptanedioyl-ACP methyl ester (hydrolysis) [1]: notable for their activity toward heptanedioyl-ACP methyl ester
activity toward heptanedioyl-ACP methyl ester in vivo [3]: showed activity toward heptanedioyl-ACP methyl ester
